Results taken from PMC3983792 (Nature, 2012).
Each block holds one molecule with its values, some of them ahead of it.

Key:
[1] = target: menin-MLL1_(MBM-LBM) complex (human) (UniProt O00255); test: ITC
[2] = target: T1, meninΔ (human menin with the unstructured loop, residues 460–519, deleted) (human, UniProt O00255-2 1-610, residues 460–519 deleted); test: ITC
T1 sequence (looked up): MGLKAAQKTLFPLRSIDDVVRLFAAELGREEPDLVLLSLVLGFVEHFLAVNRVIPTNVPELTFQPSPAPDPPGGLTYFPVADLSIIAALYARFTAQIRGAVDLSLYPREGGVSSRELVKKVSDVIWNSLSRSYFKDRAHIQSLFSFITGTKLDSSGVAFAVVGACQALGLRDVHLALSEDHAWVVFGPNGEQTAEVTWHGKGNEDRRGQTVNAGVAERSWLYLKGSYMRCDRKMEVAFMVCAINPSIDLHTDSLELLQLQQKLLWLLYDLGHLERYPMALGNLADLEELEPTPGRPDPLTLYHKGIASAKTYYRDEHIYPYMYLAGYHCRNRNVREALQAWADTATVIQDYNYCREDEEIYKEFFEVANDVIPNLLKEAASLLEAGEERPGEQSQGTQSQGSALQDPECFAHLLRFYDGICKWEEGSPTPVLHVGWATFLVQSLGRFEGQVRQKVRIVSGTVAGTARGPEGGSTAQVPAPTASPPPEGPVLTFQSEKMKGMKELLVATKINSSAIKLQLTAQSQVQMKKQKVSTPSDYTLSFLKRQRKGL

full-length menin [3] = target: T2, full-length menin (human, UniProt O00255-2 1-610); test: ITC
T2 sequence (looked up): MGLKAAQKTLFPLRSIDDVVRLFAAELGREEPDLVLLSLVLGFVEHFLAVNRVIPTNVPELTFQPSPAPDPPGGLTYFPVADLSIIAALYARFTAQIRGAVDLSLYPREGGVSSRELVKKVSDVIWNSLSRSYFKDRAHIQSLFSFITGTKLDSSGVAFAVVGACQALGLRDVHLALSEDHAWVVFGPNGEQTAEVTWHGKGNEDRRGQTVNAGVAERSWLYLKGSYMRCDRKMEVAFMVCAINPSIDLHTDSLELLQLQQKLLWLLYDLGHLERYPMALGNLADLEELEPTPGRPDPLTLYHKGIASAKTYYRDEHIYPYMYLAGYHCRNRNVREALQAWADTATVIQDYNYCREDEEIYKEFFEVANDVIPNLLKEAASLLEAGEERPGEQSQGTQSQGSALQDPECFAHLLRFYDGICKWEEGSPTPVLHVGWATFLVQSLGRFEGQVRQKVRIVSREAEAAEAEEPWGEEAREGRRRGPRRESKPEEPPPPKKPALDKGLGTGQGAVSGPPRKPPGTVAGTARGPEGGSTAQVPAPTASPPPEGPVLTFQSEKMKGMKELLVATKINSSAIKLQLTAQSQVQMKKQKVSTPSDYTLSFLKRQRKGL

full-length menin [4] = target: T2, full-length menin; test: pull-down
[5] = target: T1, meninΔ (human menin with the …); test: crystal structure

Kd [1]: 470 nM
Molecule: LEDGFIBD (IBD domain of LEDGF) (domain or fragment)

Kd [2]: 82 nM
binding result (full-length menin [3]): binds
Molecule: RWRFPARPGTTGGGGGGGRR (peptide, UniProt Q03164 6-25, looked up) [MLL1MBM (menin-binding motif, residues 6–25 of MLL1)]

fold decrease in binding affinity against wild-type MLL1MBM [2]: 21 fold
Molecule: RWRFPARPGTTGGGGGGGEE (peptide, UniProt Q03164 6-25, looked up) [MLL1MBM with 24RR25 substituted with two glutamates]

binding result [2]: binds
Molecule: SPGRLFPGAPPTAAAGSMMKK (peptide, UniProt P17535 27-47, looked up) [JunDMBM (JunD residues 27–47, menin-binding motif)]

binding result (full-length menin [4]): binds
B1: GST-fused JunD (residues 1–150) (domain or fragment, human, UniProt P17535 1-150, looked up)
chain: METPFYGDEALSGLGGGASGSGGSFASPGRLFPGAPPTAAAGSMMKKDALTLSLSEQVAAALKPAAAPPPTPLRADGAPSAAPPDGLLASPDLGLLKLASPELERLIIQSNGLVTTTPTSSQFLYPKVAASEEQEFAEGFVKALEDLHKQ

binding result [5]: binds
Molecule: SPGRLFPGAPPTAKK (peptide, UniProt P17535 27-47, looked up) [JunDMBMΔ (JunD residues 27–47 with residues 40–45 deleted)]

Kd [2]: 120 nM
Molecule: ARGRFPGRPRGAGGGGGRGG (peptide, UniProt Q9UMN6 16-35, looked up) [MLL2MBM (MLL2 residues 16–35)]

binding result [5]: binds
B2: MLL1_(MBM-LBM)Δ (MLL1 residues 6–153 with loops 16–22 and 36–102 deleted) (domain or fragment, human, UniProt Q03164 6-153, looked up)
chain: RWRFPARPGTGRRGLGGAPRQRVPALLRVGPGFDAALQVSAAIGTNLRRFRAVFGESGGGGGSGEDEQFLGFGS
